Laboratory results from US20060293243A1, “Stable, buffered, pharmaceutical compositions including motilin-like peptides” (priority 2005, published 2006).
Non-standard residues stand in square brackets, D forms with d. Me3N+ = N-terminal trimethylammonium

Legend:
Type in all cases: physicochemical
[1] = Degradation during storage as a function of composition pH; conditions: pH approximately 3 to 9, most preferably approximately 4.8-5.2
Procedure: In one embodiment, where the composition is provided in a “ready-to-use” form, the motilin-like peptide is dissolved in a buffer solution to provide an aqueous composition. […] More preferably, the pH of the pharmaceutical compositions is between approximately 4 and 6, more preferably 4.5 and 5.5 and, most preferably, between approximately 4.8-5.2. At these pH levels, the peptide of SEQ. ID. […] (The preferred pH of the composition may also be determined, in part, based on whether the composition is prepared as an aqueous composition or a lyophilized formulation, discussed below.)

[2] = Stability profile of aqueous composition stored in Schott Type 1 glass vials (FIGS. 3 and 4); conditions: Schott Type 1 vials
Excerpt: Some plastics have also proven to be effective in assisting in the stabilization of the peptide composition. In this regard, preferred plastics are cyclic olefin copolymers, available, for example, from West Pharmaceuticals under the product name CZ resin vials, or from Schott under the product name TopPac vials, or from Alcan packaging under the product name Ticona Topas serum vials. The compositions of the present invention may also be stored in PVC, as well as non-PVC flexible bags. When stored in the above described glass or plastic containers, the above-described storage times at the above-described storage temperatures can be achieved, although for storage periods of at least 18 months, Type I Plus (vapor treated silicon) vials and Type I Plus glass ampules are preferred. […] It will be appreciated by those skilled in the art that the measured stability of pharmaceutical compositions at elevated temperatures, such as 40° C. or higher, may serve as the basis of prediction of stability for longer periods at more typical storage temperatures, such as 20°-25° C. or 4°-8° C., for example. Such “accelerated storage” studies are common in the field of the present invention.

[3] = Stability of motilin-like peptide following autoclaving and storage (HPLC, undegraded peptide remaining); conditions: 30 μg/ml in 10 mM sodium acetate buffer, pH 5.0; Type I glass vials; autoclaved at 121° C. for 15 minutes; storage for 3 months at 55° C.
Procedure: The motilin-like peptide of SEQ ID NO.: 1 was dissolved at a concentration of 30 μg/ml in 10 mM sodium acetate buffer, pH 5.0. Samples of the peptide solution stored in Type I glass vials were autoclaved at 121° C. for 15 minutes and the autoclaved samples were incubated at 5° C., 25° C., 40° C., or 55° C. The potency of the peptide following storage at each temperature was measured over time by testing samples after incubation of one week, two weeks, three weeks, one month and three months. Potency was determined by using HPLC to measure the amount of undegraded peptide remaining in each sample.
It will be appreciated by those skilled in the art that stability data obtained at such elevated temperatures (i.e., accelerated storage conditions) may be used to predict stability at lower, more typical storage temperatures over extended periods of time.

[4] = Stability of lyophilized formulations of motilin-like peptide compositions (HPLC after reconstitution in water); conditions: 30 μg/ml in 10 mM citrate buffer, 1% w/v sucrose, pH 6.0, stored in 20 ml vial at 40° C. for several months, reconstituted in water
Procedure: The motilin-like peptide including SEQ ID NO.: 1 was dissolved at a concentration of 30 μg/ml in 10 mM citrate buffer and 1% w/v of sucrose (bulking agent) at pH 6.0. The composition was lyophilized by standard techniques and stored in a 20 ml vial at 40° C. The potency of the motilin-like peptide was measured at the time intervals indicated in FIG. 5, by reconstituting the composition in water. Potency was determined by using HPLC to measure the amount of undegraded peptide remaining in each sample. […] Again, it will be appreciated by those skilled in the art that the stability of pharmaceutical compositions at elevated temperatures, such as 40° C. as in FIG. 5, may serve as the basis of prediction of stability for longer periods at more typical storage temperatures, such as approximately 20° C.-25° C. or 4° C.-8° C., for example.

Substance: (Me3N) ^+Phe-Val-Pro-Ile-Phe-Thr-Tyr-Gly-Glu-Leu-Gln-D-Arg-Leu-Lys-NH2 ({Me3N+}-FVPIFTYGELQ[dR]LK-NH2) [SEQ ID NO.: 1, synthetic motilin-like peptide receptor agonist]
- degradation during storage [1]: only minimal degradation
- stability (maintenance of high levels of potency) ([2]; 30 μg/ml, several months at 5° C. to 55° C. (FIG. 4)): demonstrated stability
- stability (maintenance of high levels of potency) ([2]; approximately 5 μg/ml, several months at 5° C. to 55° C. (FIG. 3)): demonstrated stability
- potency retained (amount of undegraded peptide remaining by HPLC) [3]: greater than 90%
- potency retained (amount of undegraded peptide remaining by HPLC) [4]: greater than 90%
